Test results as given in FireProtDB (doi:10.1016/0022-2836(92)90562-x).

B1: Ribonuclease, P00648 (parent)
chain: MMKMEGIALKKRLSWISVCLLVLVSAAGMLFSTAAKTETSSHKAHTEAQVINTFDGVADYLQTYHKLPDNYITKSEAQALGWVASKGNLADVAPGKSIGGDIFSNREGKLPGKSGRTWREADINYTSGFRNSDRILYSSDWLIYKTTDHYQTFTKIR

Variants of: B1
Details: Bacillus amyloliquefaciens; pH 6.3; 25 °C; Urea; Fluorescence; MES-NaOH 450 mM; reversible: yes; structure 1BNI; whole UniProt chain shown

Row | Variant | ddG of mutation (higher = less stable) [kcal/mol] | denaturant m value [kcal/mol/M] | denaturant midpoint (higher = more stable) [M] | unfolding free energy [kcal/mol]
1 | MMKMEGIALKKRLSWISVCLLVLVSAAGMLFSTAAKTETSSHKAHTEAQVINTFAGVADYLQTYHKLPDNYITKSEAQALGWVASKGNLADVAPGKSIGGDIFSNREGKLPGKSGRTWREADINYTSGFRNSDRILYSSDWLIYKTTDHYQTFTKIR [D55A] | 0.85 | 1.94 | 4.1 | 7.97
2 | MMKMEGIALKKRLSWISVCLLVLVSAAGMLFSTAAKTETSSHKAHTEAQVINTFDGVADYLQTYHKLPDNFITKSEAQALGWVASKGNLADVAPGKSIGGDIFSNREGKLPGKSGRTWREADINYTSGFRNSDRILYSSDWLIYKTTDHYQTFTKIR [Y71F] | -0.09 | 1.95 | 4.5 | 8.91
3 | MMKMEGIALKKRLSWISVCLLVLVSAAGMLFSTAAKTETSSHKAHTEAQVINTFDGVADYLQTYHKLPDNYITGSEAQALGWVASKGNLADVAPGKSIGGDIFSNREGKLPGKSGRTWREADINYTSGFRNSDRILYSSDWLIYKTTDHYQTFTKIR [K74G] | 0.38 | 1.94 | 4.3 | 8.44
4 | MMKMEGIALKKRLSWISVCLLVLVSAAGMLFSTAAKTETSSHKAHTEAQVINTFDGVADYAQTYHKLPDNYITKSEAQALGWVASKGNLADVAPGKSIGGDIFSNREGKLPGKSGRTWREADINYTSGFRNSDRILYSSDWLIYKTTDHYQTFTKIR [L61A] | 4.53 | 1.87 | 2.2 | 4.29
5 | MMKMEGIALKKRLSWISVCLLVLVSAAGMLFSTAAKTETSSHKAHTEAQVINTFAGVAAYLQTYHKLPDNYITKSEAQALGWVASKGNLADVAPGKSIGGDIFSNREGKLPGKSGRTWREADINYTSGFRNSDRILYSSDWLIYKTTDHYQTFTKIR [D55A D59A] | 1.41 | 1.78 | 4.16 | 7.41
6 | MMKMEGIALKKRLSWISVCLLVLVSAAGMLFSTAAKTETSSHKAHTEAQVINTFDGVADALQTAHKLPDNYITKSEAQALGWVASKGNLADVAPGKSIGGDIFSNREGKLPGKSGRTWREADINYTSGFRNSDRILYSSDWLIYKTTDHYQTFTKIR [Y60A Y64A] | 3.96 | 2 | 2.43 | 4.86
7 | MMKMEGIALKKRLSWISVCLLVLVSAAGMLFSTAAKTETSSHKAHTEAQVINTFAGVAAYLQTYHKLPDNYITKSEAQALGWVASKGNLADVAPGKSIGGDIFSNREGKLPGKSGRTWREADINYTSGFRNSDRILYSSDWLIYKTTDHYQTFTKIA [D55A D59A R157A] | -0.18 | 1.94 | 4.63 | 9
8 | MMKMEGIALKKRLSWISVCLLVLVSAAGMLFSTAAKTETSSHKAHTEAQVINTFDGVADYLQTAHKLPDNYITKSEAQALGWVASKGNLADVAPGKSIGGDIFSNREGKLPGKSGRTWREADINYTSGFRNSDRILYSSDWLIYKTTDHYQTFTKIR [Y64A] | 1.67 | 2.02 | 3.5 | 7.15
9 | MMKMEGIALKKRLSWISVCLLVLVSAAGMLFSTAAKTETSSHKAHTEAQVINTFDGVADALQTYHKLPDNYITKSEAQALGWVASKGNLADVAPGKSIGGDIFSNREGKLPGKSGRTWREADINYTSGFRNSDRILYSSDWLIYKTTDHYQTFTKIR [Y60A] | 3 | 2.03 | 2.8 | 5.82
10 | MMKMEGIALKKRLSWISVCLLVLVSAAGMLFSTAAKTETSSHKAHTEAQVINTFDGVADYLQTYHKLPDNYITKSEAQALGWVASKGNLADAAPGKSIGGDIFSNREGKLPGKSGRTWREADINYTSGFRNSDRILYSSDWLIYKTTDHYQTFTKIR [V92A] | 1.17 | 2.08 | 3.6 | 7.65
11 | MMKMEGIALKKRLSWISVCLLVLVSAAGMLFSTAAKTETSSHKAHTEAQVINTFDGVADYLQTYHKLPDNYITKSEAQALGWVASKGNLADTAPGKSIGGDIFSNREGKLPGKSGRTWREADINYTSGFRNSDRILYSSDWLIYKTTDHYQTFTKIR [V92T] | 2.22 | 1.99 | 3.3 | 6.6
12 | MMKMEGIALKKRLSWISVCLLVLVSAAGMLFSTAAKTETSSHKAHTEAQVINTFDGVADYLQTYHKLPDNYIGKSEAQALGWVASKGNLADVAPGKSIGGDIFSNREGKLPGKSGRTWREADINYTSGFRNSDRILYSSDWLIYKTTDHYQTFTKIR [T73G] | 1.01 | 2.03 | 3.8 | 7.81
13 | MMKMEGIALKKRLSWISVCLLVLVSAAGMLFSTAAKTETSSHKAHTEAQVINTFDGVADYLQTYHKLPDNYIAKSEAQALGWVASKGNLADVAPGKSIGGDIFSNREGKLPGKSGRTWREADINYTSGFRNSDRILYSSDWLIYKTTDHYQTFTKIR [T73A] | 1.67 | 2 | 3.5 | 7.15
14 | MMKMEGIALKKRLSWISVCLLVLVSAAGMLFSTAAKTETSSHKAHTEAQVINTFDGVAAYLQTYHKLPDNYITKSEAQALGWVASKGNLADVAPGKSIGGDIFSNREGKLPGKSGRTWREADINYTSGFRNSDRILYSSDWLIYKTTDHYQTFTKIA [D59A R157A] | -0.39 | 1.93 | 4.78 | 9.21
15 | MMKMEGIALKKRLSWISVCLLVLVSAAGMLFSTAAKTETSSHKAHTEAQVINTFDGVAAYLQTYHKLPDNYITKSEAQALGWVASKGNLADVAPGKSIGGDIFSNREGKLPGKSGRTWREADINYTSGFRNSDRILYSSDWLIYKTTDHYQTFTKIR [D59A] | 0.39 | 1.91 | 4.4 | 8.43
16 | MMKMEGIALKKRLSWISVCLLVLVSAAGMLFSTAAKTETSSHKAHTEAQVINTFDGVADYLQTYHKLPDNYITKSEAQALGWTASKGNLADVAPGKSIGGDIFSNREGKLPGKSGRTWREADINYTSGFRNSDRILYSSDWLIYKTTDHYQTFTKIR [V83T] | 1.05 | 1.95 | 3.9 | 7.77
